This is an account of results in PMC10113271 (2023).

In general, Kd refers to the constant that tells how readily two partners part at equilibrium.

This test deals with KIX domain of CREB-binding protein (residues 586–672 of mouse CBP) (mouse, UniProt P45481 586-672). Briefly: FP.

Where no end group is shown, it is not given here. The star is where a group is joined. FITC = O=C1OC2(c3ccc(O)cc3Oc3cc(O)ccc32)c2ccc(NC(=S)*)cc21; βAla = NCCC(=O)O

KIX domain of CREB-binding protein (residues 586–672 of mouse CBP), sequence (P45481 586-672): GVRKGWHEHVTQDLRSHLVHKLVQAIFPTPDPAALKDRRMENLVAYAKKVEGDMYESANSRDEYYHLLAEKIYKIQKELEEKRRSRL

Molecule {FITC-βAla}-GYNDEDPEKEKRIKELELLLMSTENELKGQQAL [FITC-labeled c-Myb TAD peptide] displayed a Kd of 59 nM.
